T1: Mcl-1, Q07820
T1 chain: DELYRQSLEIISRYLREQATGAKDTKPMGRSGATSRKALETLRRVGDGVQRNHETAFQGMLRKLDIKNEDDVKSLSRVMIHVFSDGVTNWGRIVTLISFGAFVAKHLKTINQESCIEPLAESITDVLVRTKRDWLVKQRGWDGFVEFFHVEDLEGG

T2: Bfl-1, Q16548
T2 chain: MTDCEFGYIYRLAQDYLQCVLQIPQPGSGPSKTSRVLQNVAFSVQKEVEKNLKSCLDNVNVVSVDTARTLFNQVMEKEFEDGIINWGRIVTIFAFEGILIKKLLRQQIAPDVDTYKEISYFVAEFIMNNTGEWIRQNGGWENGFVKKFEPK


Tests used:
Assay in all cases: peptide SPOT array, c-Myc-tagged receptor at 1 uM or 100 nM, anti-c-Myc-Cy3
Mcl-1, Q07820 = molecular target: T1, Mcl-1, Q07820
Bcl-xL, Q07817 = molecular target: Bcl-xL, Q07817
Chain of Bcl-xL, Q07817 (Q07817 1-209): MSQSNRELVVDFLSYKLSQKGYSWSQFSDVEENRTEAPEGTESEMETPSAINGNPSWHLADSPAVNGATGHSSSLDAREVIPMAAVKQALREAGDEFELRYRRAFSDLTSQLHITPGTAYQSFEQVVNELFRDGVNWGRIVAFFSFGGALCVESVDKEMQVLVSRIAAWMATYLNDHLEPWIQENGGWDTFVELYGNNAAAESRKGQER

Bfl-1, Q16548 = molecular target: T2, Bfl-1, Q16548

Binder	SPOT signal as a fraction of Bim BH3's signal on the same receptor and array (Mcl-1, Q07820)	SPOT signal as a fraction of Bim BH3's signal on the same receptor and array (Bcl-xL, Q07817)	SPOT signal as a fraction of Bim BH3's signal on the same receptor and array (Bfl-1, Q16548)
AELEVECATQLRRFLDKLNFRQKLLN [PMAIP1]	0.1	0.2	0.17
RLRQLGVAKKFGVLLDNFKGKRIVLV [PPAT]	0.93	1.27	0.69
LDFTFVCPTEDIAFGDRLEEFRSINT	0.04	0.06	0.03
NDDTPWIARTDDNLADELTAILSAPA [GBP6]	0.04	0.04	0.03
PVESSWIAPELRLQSDDILPLGKDSG [DHX30]	0.04	0.05	0.04
PDKRLTLSQIDQYVADNFPFYNKSKA	0.39	0.84	0.42
LTETSLISGNLHRIGDITSCSVLWLN	0.04	0.06	0.04
PDKRLTLSQIYQYVADNFPFYNKSKA	0.56	1.74	0.56
VHKHSRLAEVLQLGLDILPQYKQEAP [KCNH1]	0.14	0.12	0.07
TETKATFGVHDKIVGDWTERFRDLLL [NOX4]	0.05	0.05	0.07
AELRLFLAQRDRWLCDSCPASRATCV [NBEAL2]	0.5	0.34	0.33
TGSLCEIATTLSFEGDGFLWVKSGSV [CRB1]	0.04	0.06	0.03
ADAIRPRCVEDRHLCDDFINGNKKKW [MCF2L2]	0.06	0.15	0.07
LTETSLISGNDHRIGDITSCSVLWLN	0.03	0.06	0.04
MQTLSELAKSDQDMADRCLLVLHLEV [EXOC4]	0.04	0.05	0.04

Further lines, results first:

SPOT signal as a fraction of Bim BH3's signal on the same receptor and array (Mcl-1, Q07820)	SPOT signal as a fraction of Bim BH3's signal on the same receptor and array (Bcl-xL, Q07817)	SPOT signal as a fraction of Bim BH3's signal on the same receptor and array (Bfl-1, Q16548)	Binder
0.04	0.06	0.04	MSILTIASAVLEFVLDGIYNNTMGHV [TAP1]
0.06	0.07	0.05	WLKGDILGEKLVNLLDCLCNEDLESR [RNF160]
0.04	0.05	0.04	LNLLMISVAFDRVIGDQLEKLCDSLL [SLC38A8]
0.83	0.66	0.76	FKAWGKFGGADCRYADEMKEIQERQR [PURB]
0.04	0.06	0.04	RKDAELLCWDDRQSGYPLWSLGREVT [WRAP53]
0.07	0.08	0.08	SFLSAHCASHLAWFLDSLTSLSQRLQ [TMEM214]
0.07	0.06	0.03	LSIIYTLVEIFQNIGDTNLADFTAGL [SLC26A4]
0.04	0.06	0.03	LDFTFVCPTEIIAFGDRLEEFRSINT
0.08	0.11	0.06	VTLLSEVEKMLSNFGDCVQYKEIVKN [SYNE1]
0.15	0.13	0.12	WTLFVYTKGNFRMIGDDLVNSYHLLL [RBL1]
